± gives the standard deviation.
Test: protein stability index of a GFP-peptide fusion (GPS, HEK-293T) (PSI 1-6); higher = more stable
Details: c terminus: a fixed tail appended
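Further: 24-mer peptide tiles fused after GFP, lentivirally expressed, FACS-sorted into six equal bins by GFP/DsRed ratio, decoded by Illumina sequencing, PSI is the read-weighted mean bin number.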

Row | Sequence | protein stability index (treatment: DMSO) | protein stability index (treatment: MLN4924 1 uM, 8 h)
1 | NLKNDGRQVEKRRNSGPVVEKLKQ [MMP1] | 4.58 ± 0.24 | 4.41 ± 0.49
2 | CEGRRTRFRSCNTEDCPTGSALTF [ADAMTS4] | 3.42 ± 0.18 | 3.29 ± 0.092
3 | HEDHMVNLRYGFTKEVMNKYKVHG [PPEF2] | 3.24 ± 0.51 | 3.58 ± 0.53
4 | FSFSMKGHEKTAKSKTRSLLKRME [DLC1] | 2.84 ± 0.24 | 3.06 ± 0.23
5 | QSLAQPLPGNTTEATPRSLRASGS | 4.93 ± 0.33 | 5.13 ± 0.18
6 | EVFRFVQSCARAVVPSYIPLVKKH [CPOX] | 2.12 ± 0.21 | 2.37 ± 0.33
7 | TIKLWKITERDKRPEGYNLKDEEG [PPP2R2C] | 4.05 ± 0.25 | 4.03 ± 0.17
8 | DEIEFLKKLHEEELRDLQVSVESQ [PRPH] | 3.58 ± 0.7 | 4.07 ± 0.36
9 | SKLDTTKALNLLPANTQINDIRIF [VPS39] | 2.55 ± 0.33 | 2.66 ± 0.31
10 | REDILSCYDVYSPDKEEQLPFGPF [PKD2L1] | 4.09 ± 0.17 | 3.93 ± 0.23
11 | KNRYANVIAYDHSRVLLSAIEGIP [PTPRD] | 2.27 ± 0.82 | 2.26 ± 0.4
12 | SAESSGCNSHMPYGYAAQARARER [KCNA4] | 4.43 ± 0.35 | 4.63 ± 0.2
13 | FAAEARYPIYVIPEPPPVSFQPYH [TENT5D] | 2.24 ± 0.22 | 2.26 ± 0.34
14 | GSRMMAVAALVVNFSQPVAGRPSL [NLN] | 3.1 ± 0.68 | 2.56 ± 1.2
15 | KVVQSLLNHGASVNNTTLTNSTPL [FEM1C] | 2.77 ± 0.21 | 2.83 ± 0.24
16 | ADKKRSGKKKISKADIGAPSGFKH [WAS] | 4.63 ± 0.27 | 4.87 ± 0.24
17 | TIVFLDKEVFASRISNPSDDNSCE [PCMTD2] | 3.8 ± 0.4 | 3.83 ± 0.21
18 | GRRVNAKMPVYSGSRPACQLQVPT [ELOA2] | 3.11 ± 0.32 | 3.49 ± 0.44
19 | NKKRGWRRLAQEPLGLEVDQFLED [NOP53] | 4.45 ± 0.35 | 4.34 ± 0.18
20 | PIFMRKDTKMSFQWRIRNLPYPKD [DPCD] | 2.27 ± 0.27 | 2.22 ± 0.069
21 | GPSRPAEKPPRPEAKSAQPADGWK [GCH1] | 5.17 ± 0.082 | 5.16 ± 0.18
22 | DIKICALGEEWSLHKIYLCQSGYF [GMCL1] | 2.91 ± 0.62 | 2.62 ± 0.49

Row | Sequence | protein stability index (treatment: DMSO) | protein stability index (treatment: MLN4924 1 uM, 8 h)
23 | HLNGHAMCQTKHSPWADGTPCGPA [ADAMTS4] | 3.12 ± 0.35 | 3.11 ± 0.22
24 | LNPSKLMEKEINGSKVTCRGLLEY [ATL3] | 2.92 ± 0.29 | 2.96 ± 0.2
25 | MQNLNDRLASYLDKVRALEEANAD [KRT15] | 4.22 ± 0.32 | 4.37 ± 0.23
26 | ADPLQLNKALSIILHLICLLEKVP [FEM1C] | 3 ± 0.24 | 3.16 ± 0.9
27 | HGGLYKPVQCHPSTGYCWCVLVDT [SMOC2] | 2.46 ± 0.86 | 2.39 ± 0.74
28 | SWLESCIVGWRCRVGQWVRMENVT [GMPPB] | 2.79 ± 0.63 | 2.69 ± 0.76
29 | FHCSMSPGNLEKNRYGDVPCLDQT [PTPN9] | 2.79 ± 0.51 | 2.82 ± 0.47
30 | RQLYAVNRRLRALEEQGATWRHRE [FATE1] | 3.52 ± 0.3 | 3.56 ± 0.15
31 | KMNFSTLRNIQGLFAPLKLQMEFK [POMP] | 2.2 ± 0.36 | 2.02 ± 0.098
32 | VQWKEPEEPNGQIQGYRVYYTMDP [PTPRD] | 3.3 ± 0.16 | 3.17 ± 0.23
33 | RLRLQRTGGLGGERERQPCGDGNT [SOAT2] | 4.59 ± 0.099 | 4.49 ± 0.14
34 | GEKPYECVQCGKSYSQSSNLFRHQ [ZNF24] | 2.4 ± 0.62 | 2.83 ± 0.56
35 | QQPGQDALAVKAGHGYDSKKQQEL [ZBED1] | 5.35 ± 0.22 | 5.21 ± 0.19
36 | LPPALVPAGGLAPGGGRGALLDQI [WAS] | 3.69 ± 0.12 | 3.71 ± 0.25
37 | GPGFHAGTSALWRHLRSAHRRELE [ZBED3] | 2.73 ± 0.34 | 3.13 ± 0.53
38 | HHSTQPKRNKRNPIFQDSQDTEVF [FAM104B] | 4.19 ± 0.34 | 4.63 ± 0.27
39 | LGPQVSLDPMKNVTCENGLPAVVS [LOXL2] | 4.3 ± 0.97 | 4.12 ± 0.25
40 | ARLASPLPREEEIVFPEKLNGSVL [ADAMTS4] | 4.01 ± 0.42 | 4.16 ± 0.15
41 | LSDFEECEETGELFEEPAPQALAT [FCHSD1] | 5.21 ± 0.22 | 5.2 ± 0.23
42 | TLSISDVRTLSEPPDKGEEQVNFC [ZBTB22] | 4.94 ± 0.21 | 5.09 ± 0.22
43 | HTPLISKSQSLRSVRRSESWARPR [RASAL3] | 3.45 ± 0.29 | 3.66 ± 0.22
44 | RDVKKTGFVFGTTLIMLLSLAAFS [RTN3] | 3.03 ± 0.43 | 3.19 ± 0.39

Row | Sequence | protein stability index (treatment: DMSO) | protein stability index (treatment: MLN4924 1 uM, 8 h)
45 | FCVALSDYDLVLAEDEEMNRMHES [GNAI1] | 3.52 ± 0.41 | 3.43 ± 0.28
46 | IHGGVVNIHENKRTGSLFKIWLVV [KLHDC10] | 2.85 ± 0.47 | 2.45 ± 0.62
47 | RRHLQFWKSHLKKVQKPLLQAPFL [RHOBTB1] | 2.14 ± 0.51 | 1.59 ± 0.26
48 | SLQMSSAEMPHTETVSPLPSSMDL [NANOGP8] | 4.93 ± 0.15 | 4.94 ± 0.14
49 | TLQSITWQMIEQIQFIKLFGMAKI [HNF4A] | 2.86 ± 0.6 | 2.87 ± 0.42
50 | GEGNSSQNSRNKRAVQGPEETVTQ [TNFSF13B] | 5.51 ± 0.2 | 5.47 ± 0.096
51 | LRCGNQGKGWKATRLFHDSAVTSV [DCAF4] | 2.19 ± 0.21 | 2.27 ± 0.22
52 | LTNSEYRSEQSVKLRRQVIQVVLN [ZER1] | 2.51 ± 0.23 | 2.44 ± 0.48
53 | RSEPIRPIDPAAWVSHTAAMTGTF [DVL3] | 2.99 ± 0.09 | 3.04 ± 0.23
54 | LRLEREEYVLLKALALANSDSVHI [ESRRA] | 2.51 ± 0.15 | 2.27 ± 0.2
55 | GAFRKGKSFILDFMLRYLYSQKES [ATL3] | 2.3 ± 0.42 | 2.22 ± 0.49
56 | PSRYAAIYNGGVEAVSTLLGAVAV [SLC19A2] | 2.28 ± 0.15 | 2.06 ± 0.37
57 | HEPLSKERVEAFSDGVYAIVATLL [TMEM175] | 2.15 ± 0.28 | 2.15 ± 0.11
58 | KGAPASWWNHMHFQHHAKPNCFRK [FADS1] | 2.87 ± 0.18 | 3.01 ± 0.43
59 | RQTVPPLTVRLHTQSVSECITEDG [PWWP2B] | 4.94 ± 0.11 | 4.7 ± 0.22
60 | RTSPSCAFRSDDTKGHPRAVSQPF [CDC14A] | 3.57 ± 0.22 | 3.62 ± 0.37
61 | HTGDKPYKCAECGKSFCHSTHLTV [ZNF8] | 3.8 ± 0.12 | 3.85 ± 0.36
62 | GWLQHDFGHLSVFSTSKWNHLLHH [FADS1] | 2.04 ± 0.44 | 2.19 ± 0.29
63 | PEEVKSLDSNGAGEKSENNSSNSD [BCL2L13] | 5.84 ± 0.15 | 5.6 ± 0.23
64 | LRSSDLYRHQRLHTGERPYECTVC [ZNF449] | 3.05 ± 0.17 | 3.17 ± 0.29
65 | YATLDLNAVKYVSNIKFCSFHPLQ [PDS5B] | 2.31 ± 0.68 | 2.18 ± 0.35
